This is an account of results in patent US10654939.

The target in experiment [1] is human CD40 expressed on cells (human) (UniProt P25942). Kind of experiment: cell-based or functional assay.
In experiment [2] the target is recombinant human CD40 (ECD)-his (human) (UniProt P25942). Description: ELISA, hCD40(ECD)-his coated. A general note: In an ELISA, binding on a coated surface is turned into a signal by an enzyme label.
The target of experiment [3] is recombinant rhesus CD40 (ECD)-hFc (rhesus monkey). Description: ELISA, rhCD40(ECD)-hFc coated.
Experiment [4] addresses human CD40 expressed on cells (human) (UniProt P25942). Description: FACS, HEK293A/humanCD40 cells. A general note: A flow cytometer gives signals particle by particle.
The target in experiment [5] is rhesus CD40 expressed on HEK293A cells (rhesus monkey). Description: FACS, HEK293A/rhesusCD40 cells.
Experiment [6] has as its target recombinant human CD40 (ECD)-his (human) (UniProt P25942). Kind of experiment: SPR (Biacore 8K), hCD40(ECD)-his coupled to chip, antibody injected.

RO7009789 (antibody), sequence (VH): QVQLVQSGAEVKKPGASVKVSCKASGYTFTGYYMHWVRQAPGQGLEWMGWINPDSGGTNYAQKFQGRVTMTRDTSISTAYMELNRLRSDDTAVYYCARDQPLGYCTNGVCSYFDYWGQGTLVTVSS
RO7009789 (antibody), sequence (VL): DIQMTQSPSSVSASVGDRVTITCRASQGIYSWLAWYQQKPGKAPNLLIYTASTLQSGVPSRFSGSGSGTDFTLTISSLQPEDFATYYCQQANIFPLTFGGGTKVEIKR
recombinant human CD40 (ECD)-his (human), sequence (P25942 21-193): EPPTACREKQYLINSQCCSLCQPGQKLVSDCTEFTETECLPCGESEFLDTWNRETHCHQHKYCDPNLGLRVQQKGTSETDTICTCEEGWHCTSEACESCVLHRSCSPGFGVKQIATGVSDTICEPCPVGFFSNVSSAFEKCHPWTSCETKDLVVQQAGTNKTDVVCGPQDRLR
human CD40 expressed on cells (human), sequence (P25942 21-277 limits assumed): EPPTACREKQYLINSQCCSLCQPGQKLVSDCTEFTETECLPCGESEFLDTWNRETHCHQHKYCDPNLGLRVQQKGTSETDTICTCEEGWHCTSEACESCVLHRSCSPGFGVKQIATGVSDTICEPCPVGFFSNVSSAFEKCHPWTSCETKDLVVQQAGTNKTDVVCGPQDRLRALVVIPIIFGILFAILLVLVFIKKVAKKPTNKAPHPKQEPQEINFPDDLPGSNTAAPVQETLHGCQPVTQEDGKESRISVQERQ
recombinant rhesus CD40 (ECD)-hFc (rhesus monkey), sequence (P25942 other isoform, or with tags, fused parts or gaps): as the sequence (P25942 21-193) above, with G43S, H56R, W89L, T92M, A95S, L101P, S106L, H142R, L172Q counted along it
rhesus CD40 expressed on HEK293A cells (rhesus monkey), sequence (P25942 other isoform, or with tags, fused parts or gaps limits assumed): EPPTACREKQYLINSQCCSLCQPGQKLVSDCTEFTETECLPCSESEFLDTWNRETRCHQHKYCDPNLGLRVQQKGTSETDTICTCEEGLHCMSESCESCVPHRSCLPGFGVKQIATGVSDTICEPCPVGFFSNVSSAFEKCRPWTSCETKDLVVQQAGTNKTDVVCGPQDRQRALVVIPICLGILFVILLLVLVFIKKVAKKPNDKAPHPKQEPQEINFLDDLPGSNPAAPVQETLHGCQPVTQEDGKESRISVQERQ

In experiment [1], RO7009789 (antibody) came in with an HEK Blue EC50 of 0.0233 mg/L. The concentration for a half-maximal effect (EC50) (commonly the concentration at which the effect is half-maximal) was determined as 0.0207 mg/L in experiment [2], 0.0162 mg/L in experiment [3], 0.227 mg/L in experiment [4] and 0.185 mg/L in experiment [5]. The Kd – broadly, the concentration at which binding is half-saturated – in experiment [6] turned out to be 1.71 nM.
